Test results from US6638518B1 (priority 1999, dated 2003).
Where two headings read alike, the source gives them in different places.

How the values were obtained:
human fibronectin = biological target: T1, human fibronectin (Homo sapiens, UniProt P02751); assay: Attachment of FAP to fibronectin (biotinylated fusion proteins on coated wells); type: binding
T1 construct: purchased Collaborative Biomedical Products, Bedford, Mass
Description: Ninety-six-well Immulon II plates (Dynatech, Chantilly, Va.) were coated with 1 μg of human fibronectin (Collaborative Biomedical Products, Bedford, Mass.) or bovine serum albumin (BSA) at 37° C. overnight. Recombinant FAP-B, FAP-A, and β-galactosidase fusion proteins were produced in the pTrcHis vector and purified as described for FAP-B, were biotinylated with NHS-LC-Biotin (Pierce, Rockford, Ill.). Biotinylated FAP-B, FAP-A and β-galactasidase fusion proteins (0.5 μg and 2 μg) were added to wells coated with fibronectin or BSA and incubated at 25° C. for 1 hour. The bound fusion proteins were detected with streptavidin-HRP (1:10,000 dilution; Pierce) and o-phenylenediamine dihydrochloride (Sigma) substrate.

[1] = test system: BCG attachment to fibronectin; type: binding, M. bovis BCG; conditions: recombinant FAP 1 μM or peptide, 90 minutes, 37° C.; FIG. 4

T1 sequence (P02751 32-2477): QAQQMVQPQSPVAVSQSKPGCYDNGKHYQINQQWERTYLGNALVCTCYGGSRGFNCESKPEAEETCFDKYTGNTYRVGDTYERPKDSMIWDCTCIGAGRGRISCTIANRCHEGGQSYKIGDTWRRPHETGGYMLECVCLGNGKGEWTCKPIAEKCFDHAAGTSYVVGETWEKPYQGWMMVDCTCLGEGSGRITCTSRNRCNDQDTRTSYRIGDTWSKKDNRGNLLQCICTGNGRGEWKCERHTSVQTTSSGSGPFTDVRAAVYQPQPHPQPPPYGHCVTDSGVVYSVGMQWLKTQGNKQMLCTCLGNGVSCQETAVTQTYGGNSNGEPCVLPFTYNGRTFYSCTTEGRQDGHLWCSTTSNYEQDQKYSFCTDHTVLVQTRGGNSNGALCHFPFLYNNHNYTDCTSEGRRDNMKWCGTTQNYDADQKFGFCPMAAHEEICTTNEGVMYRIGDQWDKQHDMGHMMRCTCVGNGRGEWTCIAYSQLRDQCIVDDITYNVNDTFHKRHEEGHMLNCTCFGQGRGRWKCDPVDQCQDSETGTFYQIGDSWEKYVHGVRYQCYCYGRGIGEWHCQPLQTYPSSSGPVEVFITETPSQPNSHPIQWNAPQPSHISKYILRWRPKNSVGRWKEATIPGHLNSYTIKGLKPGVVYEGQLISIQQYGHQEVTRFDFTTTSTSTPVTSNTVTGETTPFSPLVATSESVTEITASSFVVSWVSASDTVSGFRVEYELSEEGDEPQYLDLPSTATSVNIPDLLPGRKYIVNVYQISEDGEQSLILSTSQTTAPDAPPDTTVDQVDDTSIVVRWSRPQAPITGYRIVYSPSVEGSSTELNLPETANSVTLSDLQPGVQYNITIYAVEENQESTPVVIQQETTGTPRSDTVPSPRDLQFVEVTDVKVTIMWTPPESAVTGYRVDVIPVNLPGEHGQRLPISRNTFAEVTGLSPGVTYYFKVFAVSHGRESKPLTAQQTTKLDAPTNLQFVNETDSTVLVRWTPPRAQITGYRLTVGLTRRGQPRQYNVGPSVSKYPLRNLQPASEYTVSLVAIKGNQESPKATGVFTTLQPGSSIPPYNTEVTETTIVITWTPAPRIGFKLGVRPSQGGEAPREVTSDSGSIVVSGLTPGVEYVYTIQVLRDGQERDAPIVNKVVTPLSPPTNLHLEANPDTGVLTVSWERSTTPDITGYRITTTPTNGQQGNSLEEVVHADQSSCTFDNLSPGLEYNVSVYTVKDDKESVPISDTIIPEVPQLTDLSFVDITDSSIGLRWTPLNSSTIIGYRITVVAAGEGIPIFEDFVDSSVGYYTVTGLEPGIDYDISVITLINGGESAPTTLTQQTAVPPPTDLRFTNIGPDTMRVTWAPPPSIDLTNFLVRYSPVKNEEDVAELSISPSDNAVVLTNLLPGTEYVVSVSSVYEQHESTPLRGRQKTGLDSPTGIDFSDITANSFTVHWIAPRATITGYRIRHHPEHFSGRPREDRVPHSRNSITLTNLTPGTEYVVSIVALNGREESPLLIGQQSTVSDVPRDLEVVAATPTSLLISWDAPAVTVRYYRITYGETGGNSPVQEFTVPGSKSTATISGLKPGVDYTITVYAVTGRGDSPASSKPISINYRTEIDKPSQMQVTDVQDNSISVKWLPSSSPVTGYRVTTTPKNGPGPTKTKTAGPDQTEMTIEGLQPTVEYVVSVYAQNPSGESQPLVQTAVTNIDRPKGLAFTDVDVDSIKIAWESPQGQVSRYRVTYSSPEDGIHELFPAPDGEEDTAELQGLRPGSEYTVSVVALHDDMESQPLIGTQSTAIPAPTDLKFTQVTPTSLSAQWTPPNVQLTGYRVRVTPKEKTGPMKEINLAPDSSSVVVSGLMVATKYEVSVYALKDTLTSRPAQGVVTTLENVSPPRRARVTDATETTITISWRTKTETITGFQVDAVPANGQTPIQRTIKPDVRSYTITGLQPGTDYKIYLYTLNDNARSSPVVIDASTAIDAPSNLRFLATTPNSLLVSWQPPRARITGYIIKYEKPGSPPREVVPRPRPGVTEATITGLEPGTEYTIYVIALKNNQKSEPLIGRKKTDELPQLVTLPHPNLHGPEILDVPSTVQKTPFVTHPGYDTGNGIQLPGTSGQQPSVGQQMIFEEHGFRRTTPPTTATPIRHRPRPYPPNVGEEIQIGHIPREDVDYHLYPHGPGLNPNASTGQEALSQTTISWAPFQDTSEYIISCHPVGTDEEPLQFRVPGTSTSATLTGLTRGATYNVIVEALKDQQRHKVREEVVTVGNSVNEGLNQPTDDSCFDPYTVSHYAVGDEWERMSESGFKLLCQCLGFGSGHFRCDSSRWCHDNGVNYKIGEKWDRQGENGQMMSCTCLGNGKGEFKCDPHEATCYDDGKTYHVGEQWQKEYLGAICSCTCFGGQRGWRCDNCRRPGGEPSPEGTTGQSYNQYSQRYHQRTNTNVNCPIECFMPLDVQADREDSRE

Row | Molecule | binding to fibronectin-coated wells (human fibronectin) | inhibition of BCG attachment to fibronectin [1] | binding to fibronectin-coated wells (human fibronectin; biotinylated fusion proteins 0.5 μg and 2 μg, 25° C., 1 hour, FIG. 2)
1 | β-galactosidase: Control recombinant β-galactosidase fusion protein produced in the pTrcHis vector | did not bind to fibronectin | – | –
2 | FAP-A269-292: Synthesized peptide of amino acids 269-292 of FAP-A, a conserved fibronectin binding region (GNRQRWFVVWLGTSNDPVDKVAAK) | – | inhibit BCG attachment to fibronectin in an equivalent manner | –
3 | FAP-A: Fibronectin attachment protein produced by M. avium (SEQ ID NO:5, GenBank AAB50543), recombinant fusion protein (protein, listed as Mycobacterium avium, recombinant fusion partner) MDQVEATSTRRKGLWTTLAITTVSGASAVVIALPETSHADPEVPTPVPPSTATTPHPRRRRIPGQPADNAQAGAPAPAPNGQQRPPRRRRMIPTRAPPPAGAPPNGAPPAAPNGAPPPPVDPNAPPPPPADPNAGRIPNSYVLPAGWVESDASHLDYGSALLSKVTGPPPMPDQPPPVANDTRIVMGRVDQKLYASAEANNAKAAVGLGSDMGEFFMPYPGTRINQDSTPLNGANGSTGSASYYEVKFSDASKPNGQIWTGVIGSANAGNRQRWFVVWLGTSNDPVDKVAAKALAESIQAWTPPPAPPAAPGGPGAPAPGAPGAPAPGAPAAPGVTAPAAPAPAAPGAPAAPGAPAPEPGQAPAVEVSPTPTPTPQQTLSA | – | inhibit BCG attachment to fibronectin in an equivalent manner | bound to wells coated with fibronectin
